In this test the target is human NPR1 full-length protein overexpressed on CHO-K1 cells (human) (UniProt P16066). The test is described as follows: cell-based or functional assay.
Sequence of human NPR1 full-length protein overexpressed on CHO-K1 cells (human) (P16066 33-1061): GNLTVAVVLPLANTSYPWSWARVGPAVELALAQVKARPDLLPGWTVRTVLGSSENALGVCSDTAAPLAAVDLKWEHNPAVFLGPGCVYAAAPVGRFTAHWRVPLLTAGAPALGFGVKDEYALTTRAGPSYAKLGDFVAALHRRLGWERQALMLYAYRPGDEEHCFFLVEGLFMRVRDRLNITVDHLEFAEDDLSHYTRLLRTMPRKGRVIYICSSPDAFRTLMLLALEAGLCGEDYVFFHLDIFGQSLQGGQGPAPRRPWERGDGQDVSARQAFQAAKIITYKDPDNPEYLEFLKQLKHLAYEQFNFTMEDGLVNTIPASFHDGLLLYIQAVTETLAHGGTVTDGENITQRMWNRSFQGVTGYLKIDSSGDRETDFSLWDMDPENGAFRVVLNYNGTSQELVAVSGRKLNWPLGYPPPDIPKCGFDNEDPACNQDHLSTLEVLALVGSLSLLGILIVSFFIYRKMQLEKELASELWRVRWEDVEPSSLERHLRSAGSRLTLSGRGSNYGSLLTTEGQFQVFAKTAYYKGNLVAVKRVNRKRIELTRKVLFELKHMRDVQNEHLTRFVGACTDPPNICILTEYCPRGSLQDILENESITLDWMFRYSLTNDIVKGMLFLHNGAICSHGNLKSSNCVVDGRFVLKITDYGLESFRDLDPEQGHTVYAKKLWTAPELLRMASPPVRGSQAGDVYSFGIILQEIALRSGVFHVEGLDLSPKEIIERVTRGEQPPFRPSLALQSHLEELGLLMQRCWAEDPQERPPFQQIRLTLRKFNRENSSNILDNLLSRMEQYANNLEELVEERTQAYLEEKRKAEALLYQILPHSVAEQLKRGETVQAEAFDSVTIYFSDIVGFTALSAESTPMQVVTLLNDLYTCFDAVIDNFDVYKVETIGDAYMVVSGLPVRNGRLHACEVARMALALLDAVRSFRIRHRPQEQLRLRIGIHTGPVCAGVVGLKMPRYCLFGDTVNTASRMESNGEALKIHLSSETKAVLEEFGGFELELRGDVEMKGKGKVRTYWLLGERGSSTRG

With REGN-5381 (antibody), the Ratio (without ANP) of NPR1 antigens remaining on the cell surface after endocytosis to the initial number, 10 min, 20 µg/mL was 0.56; the Ratio (without ANP) of NPR1 antigens remaining on the cell surface after endocytosis to the initial number, 1 h, 20 µg/mL stood at 0.46; the Ratio (without ANP) of NPR1 antigens remaining on the cell surface after endocytosis to the initial number, 7 hrs, 20 µg/mL was determined as 0.3; the Ratio (without ANP) of NPR1 antigens remaining on the cell surface after endocytosis to the initial number, 24 hrs, 20 µg/mL worked out at 0.39. In addition, the Sum of signal changes (cGMP production in cells before and after endocytosis treatment) was 1.08.

For the origin of these results see patent publication EP4725963A1.
